# Biological target: HLA-A*02:01
# Assay: IEDB peptide-MHC binding, purified MHC/competitive/radioactivity; ≥ and ≤ were set here for values at or beyond the usual limits of such assays
# Conditions: source organism: Hepacivirus hominis
row,Sequence,IC50 [µM]
1,HLFTSMFSL,0.049
2,ILMTHFFSI,0.0013
3,ILMTHFFSIL,0.044

# Same assay, conditions: source organism: Influenza A virus
row,Sequence,IC50 [µM]
1,FVFTLTVPS,0.514
2,GILGFVFTLT,0.64

# Same assay, conditions: source organism: Mammarenavirus brazilense
row,Sequence,IC50 [µM]
1,HSLPRCWLV,2.13

# Same assay, conditions: source organism: SARS-CoV1
row,Sequence,IC50 [µM]
1,FVDGVPFVV,0.00097
2,FVFNGTSWFI,0.0011
3,FVVFLLVTL,0.839
4,GALDVSASV,0.0034
5,GLIAIVMVTI,0.061
6,GLMWLSYFV,0.00071
7,GLSDRVVFV,0.0031
8,GTSAAAYFV,0.176
9,HAFLCLFLL,0.0021
10,IAACAMLLV,0.567
11,IIFWFSLEI,0.009
12,ILASFSAST,0.016

# Same assay, conditions: source organism: Vaccinia virus WR
row,Sequence,IC50 [µM]
1,FVDTMSIYI,0.0096
2,FVDTMSIYIA,1.63
3,FVKENERVNV,0.27
4,FVLALYSPPL,0.979
5,FVMCLEAKT,3.83
6,FVNFVKDMI,1.79
7,FVSTMPVET,0.841
8,FVTDYVHEGV,0.048
9,FVYVSVMNFI,0.704
10,GIFVDTMSI,3.02
11,GIYNCCESNI,0.331
12,GLSSGFYFEI,0.176
13,GLYIPGTSV,0.075
14,GMSIVCIVAA,0.178
15,GTIILNKIV,3.89
16,GTSVIRSNI,0.666
17,GVCYYLLMHL,0.124
18,GVMYAFTTPL,0.083
19,HIKTIAVSV,1.05
20,HILHAYCGI,1.48
21,HLMSDNPKA,0.045
22,HVLLPFYETL,0.017
23,IAGGVCYYL,1.93
24,IALALEQYGI,3.02
25,IASILSLETV,0.424
26,IASSMKGENV,0.727

row,Sequence,IC50 [µM]
1,IAVITETIPI,0.053
2,IAVSVYGAI,0.884
3,IIAVFDSKL,1.76
4,IICEDAMYYA,0.023
5,IIMAINVFT,0.027
6,IINSVSIILA,0.895
7,IIPFIAYFVL,0.991
8,IISLFYTFAI,0.29
9,IISSKQYPA,0.41
10,IISYIILFI,0.012
11,IISYIILFIL,0.58
12,IITILQDIV,0.109
13,IIYSKAGNIL,0.542
14,ILATLNTLI,0.015
15,ILATLNTLIT,0.443
16,ILEYLYIMRV,0.03
17,ILFILFFAYV,0.139
18,ILISLINSLV,0.083
19,ILLILSCIFA,0.021
20,ILPDKIDGL,0.062
21,ILQMREIIT,0.38
22,ILRNYLRLYI,0.001
23,ILSCIFAFI,0.0018
24,ILYYGANGST,0.29
25,IMAFILGII,0.166
26,IMDKEQLLKI,0.89

# Biological target: HLA-A*68:02
# Assay: as above
# Conditions: source organism: Hepacivirus hominis
row,Sequence,IC50 [µM]
1,HLFTSMFSL,0.181
2,ILMTHFFSI,0.185
3,ILMTHFFSIL,3.97

# Same assay, conditions: source organism: Influenza A virus
row,Sequence,IC50 [µM]
1,FVFTLTVPS,0.025
2,GILGFVFTLT,0.73

# Same assay, conditions: source organism: Mammarenavirus brazilense
row,Sequence,IC50 [µM]
1,HSLPRCWLV,0.66

# Same assay, conditions: source organism: SARS-CoV1
row,Sequence,IC50 [µM]
1,FVDGVPFVV,0.168
2,FVFNGTSWFI,0.00033
3,FVVFLLVTL,0.12
4,GALDVSASV,0.0029
5,GLIAIVMVTI,1.67
6,GLMWLSYFV,0.044
7,GLSDRVVFV,1.17
8,GTSAAAYFV,0.014
9,HAFLCLFLL,0.01
10,IAACAMLLV,0.389
11,IIFWFSLEI,0.52

# Reference: the Immune Epitope Database (IEDB)
